The record followed here is publication PMC6175577 (2018).

Where a chain is given by its changes, count along the chain named. Where two headings read alike, the source gives them in different places. Where no end group is shown, it is not given here. [ ]: non-standard residue; d: D form. pT = C[C@@H](OP(=O)(O)O)[C@H](N)C(=O)O; pS = N[C@@H](COP(=O)(O)O)C(=O)O

What all share (assay): FP
For one experiment, the target named is T1, TOPBP1-BRCT7,8 ( (human and chicken TOPBP1 …)).
T1 chain: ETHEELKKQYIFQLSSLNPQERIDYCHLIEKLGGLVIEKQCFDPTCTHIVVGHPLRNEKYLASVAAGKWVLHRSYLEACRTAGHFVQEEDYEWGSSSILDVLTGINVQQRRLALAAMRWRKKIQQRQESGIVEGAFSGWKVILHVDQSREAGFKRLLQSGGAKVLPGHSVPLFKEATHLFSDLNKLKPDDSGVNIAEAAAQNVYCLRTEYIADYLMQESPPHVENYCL

Experiment [1] deals with T2, TOPBP1-BRCT0,1,2 K250E (BRCT2 phosphate-binding site mutant) ( (human and chicken TOPBP1 …)).
T2 chain: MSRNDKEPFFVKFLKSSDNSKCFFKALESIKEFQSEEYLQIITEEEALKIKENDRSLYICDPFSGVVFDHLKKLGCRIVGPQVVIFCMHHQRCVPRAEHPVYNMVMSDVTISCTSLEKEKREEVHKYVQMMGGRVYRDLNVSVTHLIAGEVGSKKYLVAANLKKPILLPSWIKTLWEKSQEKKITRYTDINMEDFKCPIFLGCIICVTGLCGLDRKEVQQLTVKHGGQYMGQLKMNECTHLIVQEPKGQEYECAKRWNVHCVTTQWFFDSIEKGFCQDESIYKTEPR

The target in experiment [2] is T3, TOPBP1-BRCT0,1,2 segment, wild type (recombinant, fluorescence polarisation) ( (human and chicken TOPBP1 …)).
T3 chain: T2 chain with E250K

Experiment [3] has as its target T4, Rad4-BRCT1,2 segment, wild type (recombinant, fluorescence polarisation) (S. pombe, UniProt P32372 1-186).
T4 chain: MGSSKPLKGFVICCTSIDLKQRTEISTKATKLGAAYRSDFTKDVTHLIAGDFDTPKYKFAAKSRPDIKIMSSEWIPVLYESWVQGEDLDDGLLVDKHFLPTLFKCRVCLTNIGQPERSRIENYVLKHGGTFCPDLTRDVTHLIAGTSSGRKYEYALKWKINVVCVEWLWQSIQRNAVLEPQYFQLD

A further experiment has as its target T5, TOPBP1-BRCT4,5 segment ( (human and chicken TOPBP1 …)).
T5 chain: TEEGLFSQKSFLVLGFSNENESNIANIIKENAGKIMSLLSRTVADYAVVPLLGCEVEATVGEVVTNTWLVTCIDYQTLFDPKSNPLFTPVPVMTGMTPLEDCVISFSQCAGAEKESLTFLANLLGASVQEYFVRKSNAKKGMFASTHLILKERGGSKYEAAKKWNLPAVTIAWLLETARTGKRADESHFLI

Experiment [4] has as its target T3, TOPBP1-BRCT0,1,2 segment, wild type ….
Another experiment concerns the target T6, S. pombe Nbs1 (S. pombe, UniProt O43070 1-613).
T6 chain: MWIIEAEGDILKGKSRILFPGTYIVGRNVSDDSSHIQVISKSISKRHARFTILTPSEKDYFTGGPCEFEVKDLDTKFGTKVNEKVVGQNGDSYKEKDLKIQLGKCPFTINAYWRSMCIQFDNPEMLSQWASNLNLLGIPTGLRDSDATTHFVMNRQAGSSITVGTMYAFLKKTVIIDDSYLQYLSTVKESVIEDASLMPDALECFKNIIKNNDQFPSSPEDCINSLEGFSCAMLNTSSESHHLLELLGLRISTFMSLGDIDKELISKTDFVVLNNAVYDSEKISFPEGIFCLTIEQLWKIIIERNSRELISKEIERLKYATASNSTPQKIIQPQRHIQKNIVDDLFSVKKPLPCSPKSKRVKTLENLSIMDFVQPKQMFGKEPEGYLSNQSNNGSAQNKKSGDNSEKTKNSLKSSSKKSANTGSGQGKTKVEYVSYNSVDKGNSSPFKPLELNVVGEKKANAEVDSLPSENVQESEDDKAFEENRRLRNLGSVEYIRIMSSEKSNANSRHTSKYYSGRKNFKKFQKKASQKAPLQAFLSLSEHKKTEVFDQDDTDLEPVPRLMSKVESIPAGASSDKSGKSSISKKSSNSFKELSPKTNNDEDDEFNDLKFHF

By Kd is commonly meant the concentration at which binding is half-saturated. For fluorescein-GYGEDESIYF[pT]PELYDPE [FANCJ pT1133 fluorescein-labelled phosphopeptide], in the experiment with TOPBP1-BRCT7,8, the Kd is 140 nM.

Consider fluorescein-GYGGPVLVKD[pT]PEDKYGI [RHNO1 pT202 fluorescein-labelled phosphopeptide], for which the Kd in experiment [1] and in experiment [2] was below 200 nM each time.

Take fluorescein-GYGGVMTVPN[pT]PQKPNLQ (also: phosphothreonine at 113 (T7 or T11)) [Mdb1 pT113 fluorescein-labelled phosphopeptide]: the Kd in experiment [3] stood at 1310 nM.

In turn, fluorescein-GYGDTDFVPP[pS]PEEIISA (also: phosphoserine at 304 (S11 or S17)) [BLM pS304 fluorescein-labelled phosphopeptide] gave a Kd with TOPBP1-BRCT4,5 segment of 3460 nM.

For the molecule fluorescein-GYGDIGVVEE[pS]PEKGDEI [Treslin pS1001 fluorescein-labelled phosphopeptide], in experiment [4], the Kd was determined as 600 nM.

As to fluorescein-GYGVEGDHS[pS]D[pT]EEEVVS [Mdb1 pS216, pT218 fluorescein-labelled phosphopeptide (SDT site)], in the experiment with S. pombe Nbs1, the Kd was 820 nM.

Take fluorescein-GYGLTKSVAE[pT]PVHKQIS (also: phosphothreonine at 969 (T5 or T11)) [Treslin pT969 fluorescein-labelled phosphopeptide]: the Kd in experiment [4] is 940 nM.
